The text below walks through data of patent publication US20170151309A1.

Experiment in all cases: cell-based or functional assay
Experiment [1] has as its target adiponectin receptor 1 (human) (UniProt Q96A54).
The target of experiment [2] is adiponectin receptor 2 (human) (UniProt Q86V24).
The target in experiment [3] is adiponectin receptor 1 (human) (UniProt Q96A54). This is another data set of the same source.
Experiment [4] has as its target adiponectin receptor 2 (human) (UniProt Q86V24). The source holds these as a separate data set.

Like-named read-outs stand apart in the source and are kept apart here.

Chain of adiponectin receptor 2 (human) (Q86V24 whole entry): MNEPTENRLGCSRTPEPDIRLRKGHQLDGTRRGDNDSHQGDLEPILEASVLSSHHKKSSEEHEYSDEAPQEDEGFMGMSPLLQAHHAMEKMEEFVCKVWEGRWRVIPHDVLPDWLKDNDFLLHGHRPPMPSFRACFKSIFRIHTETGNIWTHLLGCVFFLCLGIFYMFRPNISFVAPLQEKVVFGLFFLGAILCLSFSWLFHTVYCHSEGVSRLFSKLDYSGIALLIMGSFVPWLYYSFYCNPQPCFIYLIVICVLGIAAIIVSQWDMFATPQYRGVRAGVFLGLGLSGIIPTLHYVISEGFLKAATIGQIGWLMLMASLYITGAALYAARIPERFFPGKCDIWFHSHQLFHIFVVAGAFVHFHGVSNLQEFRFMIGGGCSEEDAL
Chain of adiponectin receptor 1 (human) (Q96A54 whole entry): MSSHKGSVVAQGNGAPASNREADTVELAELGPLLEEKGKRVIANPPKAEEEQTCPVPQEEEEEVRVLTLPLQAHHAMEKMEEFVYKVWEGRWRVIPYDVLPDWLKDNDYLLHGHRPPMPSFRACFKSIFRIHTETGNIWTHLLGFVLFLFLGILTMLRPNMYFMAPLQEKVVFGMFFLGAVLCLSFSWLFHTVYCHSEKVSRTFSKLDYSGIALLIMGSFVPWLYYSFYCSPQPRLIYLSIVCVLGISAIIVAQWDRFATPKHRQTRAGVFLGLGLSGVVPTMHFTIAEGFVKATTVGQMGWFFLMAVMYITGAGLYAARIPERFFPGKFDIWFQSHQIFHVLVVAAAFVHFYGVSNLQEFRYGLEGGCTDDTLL

“adiponectin (from UniProt Q15848 19-244) (ligand)”: the EC50 of inhibition of PBL transendothelial migration (static adhesion assay) in experiment [1] came out at 0.94 µg/mL; in experiment [2], 0.94 µg/mL; in experiment [3], 40 nM; in experiment [4], 40 nM.
